Laboratory results from patent US20100284934A1.

How the values were obtained:
[1] = molecular target: aggregated recombinant human α-synuclein produced by aging (amyloid fibrils) (human) (UniProt P37840); assay: ELISA, α-synuclein coated at 100 pmol/well, range of peptide concentrations
[2] = molecular target: aggregated recombinant human α-synuclein produced by aging (amyloid fibrils) (human) (UniProt P37840); assay: ELISA, α-synuclein coated at 200 pmol/well, range of peptide concentrations
[3] = molecular target: dopamine treated recombinant human α-synuclein (soluble aggregates, oligomers) (human) (UniProt P37840); assay: ELISA, α-synuclein coated, peptide in solution

lowest binding concentration detected [1]	lowest binding concentration detected [2]	lowest binding concentration detected [3]	Substance
10 pmol/well			OR1, Gd-DOTA-rGtvvaGK(biotin)-rrrrrr (peptide)
10 pmol/well			OR2, Gd-DOTA-rGvvaGK(biotin)-rrrrrr (peptide)
	10 pmol/well		OR3, Gd-DOTA-rrrrrrGtvvaGK(biotin)-r (peptide)
	10 pmol/well		OR4, Gd-DOTA-rrrrrrGvvaGK(biotin)-r (peptide)
	10 pmol/well	1 pmol/well	OR5, Gd-DOTA-r-Sar-vva-Sar-K(biotin)-rrrrrr (peptide)
